Where no end group is shown, it is not given here.

The results in this text go back to patent US6495144B2, “EBNA2 peptides and methods of using same” (Johns Hopkins University School of Medicine, priority 1996, dated 2002).

One experiment addresses T1, EBNA2/CBF1 complex (Homo sapiens, UniProt Q06330).
T1 construct: and heparin-agarose purified CBF1; endogenous in cells; host or cells: CBF1: heparin-agarose purified cell protein; EBNA2 252-425: in vitro translation
The experiment is described as follows: EMSA competition of synthetic peptides for EBNA2/CBF1 complex formation. The format is binding. The note with it: for competition for EBNA2/CBF1 complex formation in EMSA, in words: 1.25-10 μg synthetic peptide. As for the experimental part:
FIG. 8 is an EMSA that examines the ability of synthetic peptides representing CR5 (PEP.CR5), CR6 (PEP.CR6), mutant CR6 (CR6WW323SR) (PEP.CR6WW>SR), CR7 (PEP.CR7), and a control, nonconserved region comprising amino acids 265-279 (CONTROL) to compete for EBNA2/CBF1 complex formation. Increasing amounts of peptide (i.e., 1.25, 2.5, 5.0 and 10 μg; black triangles) were added to the binding reactions containing the Cp CBF1 binding site probe, in vitro translated wild-type EBNA2 (i.e., corresponding to amino acids 252-425) and heparin-agarose purified CBF1.
CR6 could perform this function by generating a specific secondary or tertiary structure that facilitates interaction (e.g., a lock and key model of interaction). Alternately, CR6 could mediate direct protein-protein contacts, perhaps through the formation of a tryptophan bridge (Corina et al., Virology, 197, 391-396 (1993)). To further examine the proposed contributions of CR5, CR6, and CR7 in EBNA2 interaction, and to probe the role of CR6, five 10-15 amino acid peptides were synthesized. The peptides were tested for their ability to compete with a full length EBNA2 protein for complex formation with CBF1. The relative location of the peptides in the EBNA2 protein is illustrated in FIG. 2, and the exact position of the sequences can be determined from FIG. 5. The peptides are as follows: a control peptide comprised of amino acids 265-279 (i.e., Ser Thr Pro Asn Asp Pro Asp Ser Pro Glu Pro Xaa Ser Pro Thr [SEQ ID NO:8], wherein Xaa is Arg or Pro); a CR5 peptide comprised of amino acids 299-314 (i.e., Ala Pro Ala Gln Pro Pro Pro Gly Ile Ile Asn Asp Gln Gln Leu [SEQ ID NO:9]); a CR6 peptide comprised of amino acids 318-327 (i.e., Pro Ser Gly Pro Pro Trp Trp Pro Pro Ile [SEQ ID NO:6]); a CR6 WW323SR peptide comprised of amino acids 318-327 (i.e., Pro Ser Gly Pro Pro Ser Arg Pro Pro Ile [SEQ ID NO:10]); and a CR7 peptide comprised of amino acids 380-391 (i.e., Pro Ser Met Pro Glu Leu Ser Pro Val Leu Gly Leu [SEQ ID NO:11]).
Increasing amounts of the peptides were added to the binding reaction mixtures which were then analyzed using an EMSA (FIG. 8). […] It is known that EBNA2 can interact with CBF1 in solution (Grossman et al., supra; Henkel et al., supra). A typical binding reaction presumably contains both DNA-bound and non-DNA-bound EBNA2/CBF1 complexes.
(Mobility shift assays separate free from complexed probe on a gel.)

Experiment [1] addresses T2, EBNA2 interaction with CBF1 in solution (Homo sapiens, UniProt Q06330).
T2 construct: made in house; host or cells: CBF1: in vitro translation
In words: GST affinity assay with GST-EBNA2 (252-425) and 35S-labeled in vitro translated CBF1. It is filed as binding.

T1 sequence (Q06330 whole entry, one chain of several): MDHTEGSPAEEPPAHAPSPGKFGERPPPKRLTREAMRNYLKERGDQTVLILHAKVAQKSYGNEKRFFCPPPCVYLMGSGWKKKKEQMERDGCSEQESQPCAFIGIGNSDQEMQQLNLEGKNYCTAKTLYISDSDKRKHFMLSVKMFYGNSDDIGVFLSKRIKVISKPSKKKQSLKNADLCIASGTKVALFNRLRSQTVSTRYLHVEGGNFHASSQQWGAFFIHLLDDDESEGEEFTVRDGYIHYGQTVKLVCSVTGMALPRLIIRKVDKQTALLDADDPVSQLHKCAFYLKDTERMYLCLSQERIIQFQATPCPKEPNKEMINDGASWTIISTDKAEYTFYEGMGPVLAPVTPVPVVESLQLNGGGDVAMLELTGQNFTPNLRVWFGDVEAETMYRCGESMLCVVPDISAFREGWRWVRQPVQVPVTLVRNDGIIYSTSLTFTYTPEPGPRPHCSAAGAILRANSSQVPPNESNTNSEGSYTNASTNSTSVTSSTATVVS
T2 sequence (Q06330 whole entry): as the sequence (Q06330 whole entry, one chain of several) above

For APAQPPPGIINDQQL [CR5 peptide], the “competition for EBNA2/CBF1 complex formation in EMSA, in words” value with EBNA2/CBF1 complex is reported as “Neither the control peptide nor the peptides spanning CR5 or CR7 had any effect on the formation of the EBNA2/CBF1 complex”.
For the substance PSGPPSRPPI [CR6 WW323SR peptide], the “competition for EBNA2/CBF1 complex formation in EMSA, in words” value in the experiment with EBNA2/CBF1 complex is on record as “abolished the ability of the peptide to compete with EBNA2 for interaction with CBF1”. Also, the “competition for EBNA2 interaction with CBF1 in GST affinity assay, in words” value in experiment [1] is listed as “abolished the ability of the peptide to compete with EBNA2 for interaction with CBF1”.
Take PSGPPWWPPI [CR6 peptide]: the “competition for EBNA2/CBF1 complex formation in EMSA, in words” value with EBNA2/CBF1 complex is “regenerating the DNA-bound CBF1 complex to the levels seen in the absence of added EBNA2”. Moreover, the “EBNA2/CBF1 complex eliminated by competition” value with EBNA2/CBF1 complex (1.25-10 μg synthetic peptide added to binding reaction) was 40%. In addition, in experiment [1], the “competition for EBNA2 interaction with CBF1 in GST affinity assay, in words” value is “could compete for EBNA2 interaction with CBF1 in solution”.
For the substance “Pro Ser Met Pro Glu Leu Ser Pro Val Leu Gly Leu [CR7 peptide]”, the “competition for EBNA2/CBF1 complex formation in EMSA, in words” value with EBNA2/CBF1 complex is “Neither the control peptide nor the peptides spanning CR5 or CR7 had any effect on the formation of the EBNA2/CBF1 complex”.
On the same count and under the same terms, the entry for “Ser Thr Pro Asn Asp Pro Asp Ser Pro Glu Pro Xaa Ser Pro Thr [control peptide, reference compound]” is “Neither the control peptide nor the peptides spanning CR5 or CR7 had any effect on the formation of the EBNA2/CBF1 complex”.
